PMC6783313 (Nature structural & molecular biology, 2019)

B1: ClpP2(S98A) from Listeria monocytogenes (natural protein)
chain: not shown
B2: ClpX(E183Q) from Listeria monocytogenes (natural protein)
chain: not shown

Experiments:
cryo-EM structure = molecular target: the molecule itself; assay: cryo-EM structure
[1] = molecular target: B2; assay: HDX-MS

Binder	stoichiometry N (cryo-EM structure)	binding result [1]
B1	7	binds
B2	6	–
